Reference: ChEMBL document CHEMBL1136363, “Rational approaches towards reversible inhibition of type B monoamine oxidase. Design and evaluation of a novel 5H-Indeno[1,2-c]pyridazin-5-one derivative” (Bioorg Med Chem Lett, 2003)

Legend:
[1] = substrate: CN1CC=C(C2CCCN2C)CC1; test: Km value for Monoamine oxidase A was determined in human placental tissue
[2] = substrate: CN1CC=C(C2CCCN2C)CC1; test: Km value for Monoamine oxidase B was determined in baboon liver tissue.; set-up: species or system Papio hamadryas

Row | Protein | Km [1] | Km [2]
1 | Amine oxidase [flavin-containing] A (Homo sapiens) (protein) MENQEKASIAGHMFDVVVIGGGISGLSAAKLLTEYGVSVLVLEARDRVGGRTYTIRNEHVDYVDVGGAYVGPTQNRILRLSKELGIETYKVNVSERLVQYVKGKTYPFRGAFPPVWNPIAYLDYNNLWRTIDNMGKEIPTDAPWEAQHADKWDKMTMKELIDKICWTKTARRFAYLFVNINVTSEPHEVSALWFLWYVKQCGGTTRIFSVTNGGQERKFVGGSGQVSERIMDLLGDQVKLNHPVTHVDQSSDNIIIETLNHEHYECKYVINAIPPTLTAKIHFRPELPAERNQLIQRLPMGAVIKCMMYYKEAFWKKKDYCGCMIIEDEDAPISITLDDTKPDGSLPAIMGFILARKADRLAKLHKEIRKKKICELYAKVLGSQEALHPVHYEEKNWCEEQYSGGCYTAYFPPGIMTQYGRVIRQPVGRIFFAGTETATKWSGYMEGAVEAGERAAREVLNGLGKVTEKDIWVQEPESKDVPAVEITHTFWERNLPSVSGLLKIIGFSTSVTALGFVLYKYKLLPRS | 52 µM | 
2 | Amine oxidase [flavin-containing] B (Homo sapiens) (protein) MSNKCDVVVVGGGISGMAAAKLLHDSGLNVVVLEARDRVGGRTYTLRNQKVKYVDLGGSYVGPTQNRILRLAKELGLETYKVNEVERLIHHVKGKSYPFRGPFPPVWNPITYLDHNNFWRTMDDMGREIPSDAPWKAPLAEEWDNMTMKELLDKLCWTESAKQLATLFVNLCVTAETHEVSALWFLWYVKQCGGTTRIISTTNGGQERKFVGGSGQVSERIMDLLGDRVKLERPVIYIDQTRENVLVETLNHEMYEAKYVISAIPPTLGMKIHFNPPLPMMRNQMITRVPLGSVIKCIVYYKEPFWRKKDYCGTMIIDGEEAPVAYTLDDTKPEGNYAAIMGFILAHKARKLARLTKEERLKKLCELYAKVLGSLEALEPVHYEEKNWCEEQYSGGCYTTYFPPGILTQYGRVLRQPVDRIYFAGTETATHWSGYMEGAVEAGERAAREILHAMGKIPEDEIWQSEPESVDVPAQPITTTFLERHLPSVPGLLRLIGLTTIFSATALGFLAHKRGLLVRV |  | 60.9 µM
